Data from a protein production outcome set (Wang et al. 2014).

Assay: label from the status in PepcDB records
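Also: failed if final PepcDB status was selected cloned or expressed and not failed if soluble or beyond.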

Row | Sequence | protein production
1 | MPFEDALAIVNAAMQTLLGRQLSDIETLIFEGSWQSKTYPQIADGAGYSINYLTTDVGPKFWKVLSQALGEPVNKKNFKAAIRRYCVVQSGGEWESEGFQTQLPSYPSILSWGEAPDVSQFYGREEEQALLQRWIEAERCRLIAVLGMGGIDKSTLTTKVVQGFVQGDGVEEWEGDNINIKKIQNPLQEGQSPTKFKIQHLPSSPATPFTHIIWRSLRNAPPLEALLAELIDLLSEHQETVGDRARLLHWLRKTRCLIVLDNLETILQAGDHAGYYRDGYGDYGELIQLLGETPHQSCVLLTSREKPAEIAVLEGLDGNTRTLQLSGSVATAIAIIQQKGLQGTEEQQQVLCDRYSYNPLALKIVSTTIQDLFDGDISAFLTEDAVIFNSIRRLLDAQFQRLTELEQAIIIWLAINRDWTAIAELAADLVPPVPKVKLLEALESLRWRGLIETQDKRYTLQPVVMEYVTERFIEQINQELEMGQPQYWQQFALLKLTVRDHITETQRRLIVHSTAAQFGDCFPSPELQRQQLQTVLTAIRESVIAGYGVGNLINLSNALDLDLAGFDFSQLTIRQADLRHRLFQHLNFAQANFRDSAFKQTFGSIFSLSYSPAGDYLITGDDVGVVRLWKSAEMQPMQSYPLHRSYVWDLRPSADGRWLATCSEDQTVKITNLATGQLQATLVVAPTIARAIVWIGPDCLAIGGIDGHIRLWYPFTEQAPVLVTAHTDIVNSLSWDANSNLLASSSSDSTVKLWDVETGICHRIWREAVPVRWATWSPDGHTLAISREDGGIVLWNPHSDQAPRYLNGHPETVWSLDWNPDGAWLASSSHDATVRLWDVVTGRCRRILRSHQNWVWYARWHPHQPRIISGGHDGTLKLWDTGTGQCLKSLTGHMANIRAIAPAPDGQTLALGCDDTIVRLCGADSPPSFIHAFGHSHLISDLCWNPTGENLASASHDCNLRVWQRSPLRCTQVLKGHTNWVWSVDWHPTQDLLASGSVDSTIRLWYPTQSTPVKTLMAQTSWILSVRWHPTGRWLASAAGDFTIGLWNSKTWECTHLLTGHTHWIWCLAWSPNGQYLASGGYDNTVFIWKVEKEVTSLRTLEHPTILSAIAWHPDGELLATSCHDGNIRLWHWQTGQCVTRISGHQGEILTLKFSPDGKRLYSSSQDETWKTWDWQTGTCLASDRLDRPYEGMNISEVRGLTEVRKAALRALGATEGSQPPGDLVRWLRKTEQGRKL | failed
2 | MPFERFVQTGRIAKASAGPLKGRLVAIVDVIDQNRVLVDGPLTGVPRQEYRLNNLHLTKYRIKFPYTAPTRIVRKAWTESDLKAQWKVSPWSVKAQNICKRSSLNDFDRFKLRYAKRQRNKLLTIAFNTLKKRTKADGTPRVLKKDRRERLRAEKAKGGKKAAAKK | failed
3 | MPFETPDLLGPSEPVPDRLSANEFLLRPLTPTDAEIDYEAVTESGDRLHGIFGPDDEWPTGLTPEQNRIDVCWHYREHQRRDAFTYGVFDPAETTELGCLYVQPTRIEGYDAAVYYWTAAAAVERGLADEIETACREWVATEWPFGRVAYPGRDVSWQAVPAAGTEGD | failed
4 | MPFLFPKFWVMSAPHDTHVSRRLRRGLASACAVVTAIAAFSPAHAAPSPNKAGPMSGSTGRTTVGQLLTPAGQLTTLGDLPLNEALSPDGRYLIVSNNGQGTQSLQVIKTATGKVVQTIPYKSPESLYMGLAFSPDGTHLFASAAGNHKIRTYHFDCGKLVETSAIQMPVVSPKLTKVNLYPAGLAVTNDSKRLVVADQLADAVSVIDLATNKIQTTHIGHRPVWVTLSKDSTKAFVSSQGGADVAEVDITKSQPLATHKINVGFHPNKSVLTPDGKSLYVANGDADTISVVDVASHRQTATIPVNRNGSKLVGANPTGLALSQDGKRLYVTNSGHNEVAVINAATRKVIGDIPTGWYPTQVLAHDGKLSITSAKGLGAGPNNGPGHPNPTDPRDTAENQYSGSMIKGLLSTVNGMTQRPWPS | failed
5 | MPFPSLPSPLARALTERNYAEPTPVQQAVLDAVPERDLLVSAQTGSGKTVAFGLAIAGTLLGEDETLPPPGAPLALVIAPTRELALQVQRELTWLYAQTGARIVPCVGGMDPRREARALEAGVHIVVGTPGRLRDHMERGRLVTEGLRAVILDEADEMLDMGFREDLEFILASTPKDRRTLLFSATLPKAIVALAESYQRDALRLAVAGETRGHADIVYRAVRVMPREVEHAVVNILRYVDAPVAIVFCNTRDGVRHLQASLTERGFSAVALSGELGQGERNAALQALRDGRARVCVATDVAARGIDLPGLDLVIHADLPHDAEVMQHRSGRTGRAGRKGTSVVLVPPAKRRRAEQMFAIAKVSPDWSGPPNADEIRILDRERMMSDPLLAEPETEEDREWEREWAEALMERCPPERLAAAFARLYRSRIPVPEEVSDPAYETSRRPDSRSGVPVGASRVGDDEPAAWFRLNLGRRDRAEPRRLLPMLTRRGQIGRGDIGSIRIFDNETTFEVRASAADDFAASFARRGPADVRVERMQGDGPAAAKAPKSPRAQRHRREATKTGRGG | failed
6 | MPFTVTIEVSKQFETSTLPEKVFALLSDVPRSASYFPDVEKLEPLGSNAFRWIMEKNAIGGHTLKQTIYACTYRSDRVTMSVAWVPVEGEGNARVEGNWQIEFAFIQKIDRYISNLKETFAK | failed
7 | MPGIDIVIVNWNSGNQLRECLRSIGNLVGEAEPLTVTVVDNASCDGSADGLPEPSCPLRVIRNRANLGFGRASNLGAREGSADYLLFLNPDTRLHPGALSIPLGFMESETGRHVGICGVQCLDETGGVARCCARFPTAWRLVGQALGLDRLFPRWIPPHFLGEWPHDSDRDVDQVIGAFFFVRRAVFEQLGGFDERFFVYYEDLDFALRARRAGWGSRYLAGARIFHRGGGVSRQISARRLHYLTHSKLRYARKHFAGIDAFLVSAAVLLLEPLARSAYALGRGRPGEFADTWKAFGGLYASLCRPGENGRLEHHHHHH | failed
8 | MPGITFKEDANERGRQIEHWPLLKNGSIFVIADDGTRYFQEDAKHRHGHVYTHGSWLIPMNNQHPYLIFDQTQYDAFKQEESQAGQLPYPKFMTKLVSAPTIAQLAAKLGVPANNLQQTVTDFNHYTEVGRDFEFGRDPQTMRQLDDGPYYAIAALEHHHHHH | not failed
9 | MPGPIMQEVAQYLASLSGKAVVINIFAGHADRSLSQTQLAELLDKLLARHPGSAVILLDHRREIRIPLPPEVVINPFNTLHHAMALIAQAELIISPDTSVVHMAAAWNKPLIAVYKDVLLNNRLWAPGYDNARQIIVKCGKVHQHRGLVDRIIAALPETLLEHHHHHH | failed
10 | MPGPKDLDPSSSPRALLGAELRHAREKSGLSQEELGARLFVSGSFIGQLESGTRRMQPEYARLLDDVLDTEDFFRRNCTASAKSKYPEHFAQAAEAEGTAREIKEYASMLIPGLLQTPAYARAVCRAYQPTAPDDAIEELVTARMERARMLADPTGPVLWAVVDESALRRSTGGPGVMAEALRHLAHLMRENRVIVQVLPFEAGAHPAMQGCVKLMDFADAPSLVYLEGVGTGRVDDDPATVGRYRFYYELLMVAALSTTKSLSLIEKLAQNYAHGDHP | failed
11 | MPGPSRKAAAWLPILVILVAMTSIQSGASLAKSLFPVVGAPGVTALRLALGTLILVVVFKPWRLRFSPAQRVPLLLYGLALGAMNYLFYLSLQRIPLGVAVALEFTGPLAVALFGSRRPLDFVWVALAILGLWYLLPLGQNVAQVDLTGALFALGAGACWAVYILTGQRAGEEHGPATVAMGSLIASLVFVPLGMAQATDTLWQWSLLPLGLGIAILSTALPYSLEMMALTRLPTRTFGTLMSLEPALAALSGMIFLGETLKLSQTLALGAIIIASMGATLTMQRQSKVEQVDIN | failed
12 | MPGQSRFPLPLIAAFFALYVIWGSTYLVIRIGVEYWPPLMLGGIRFIIAGSLMYAFLRWRGVPAPTWAQWKAAGIIGVLLLSCGNGAVTLAEHSGVTSGVAALAVATVPLFTLLCGYFWGARNTRLEWAGIVLGMIGIGMLNLGSNLQSSPMGAALLLFAAAAWAFGSVWSKHLPLPQGAMASAAEMLVGGVVLMIGSALSGEHLDTLPPMEGWLALAYLAGFGSIIAFNAYMYLLKHVRPAAATSYAYVNPAVAVLLGIVFVGETIGIEEAMAMLVIISAVVLIGLPQWRKPKAAAQEEAA | failed
13 | MPGSLRKMPVWLPIVILLVAMASIQGGASLAKSLFPLVGAPGVTALRLALGTLILIAFFKPWRLRFAKEQRLPLLFYGVSLGGMNYLFYLSIQTVPLGIAVALEFTGPLAVALFSSRRPVDFVWVVLAVLGLWFLLPLGQDVSHVDLTGCALALGAGACWAIYILSGQRAGAEHGPATVAIGSLIAALIFVPIGALQAGEALWHWSVIPLGLAVAILSTALPYSLEMIALTRLPTRTFGTLMSMEPALAAVSGMIFLGETLTPIQLLALGAIIAASMGSTLTVRKESKIKELDIN | failed
14 | MPHLFYGTAQNGEVIFDEREAHHMRVVRLKEGDVIEATDGNGFSYTCILKSLKKKTAAAKIVKVEEKEKEPTEKLSVVVPIGRWERTRFLIEKCVELGVDEIFFHKFERSQHEISLDKAKIVVREAAKQCKRYLFPKVSFLEKLEFSGNVITLDLDASQNLLDANLEGSITVVVGPEGGFSEKERELLRSSTTIVSLGKKILRFETAAILTVGYIALKKQKI | not failed
15 | MPHLNILIVRIEEFLRSIVKITSAPTYKTRVKSFNSYYLKLLKFPPKKDTSDLPVLTDILGVRIICPFLQDINEVERILLKNFKIIEVERKGSERTFREFGYESVHFLLDIPEEFKVGLVLPKNLIFEIQLRTILQDAWAEVEHELVYKSEFSPFDQPLKRKLASINASLSLADIIFQEIRDYQNKLNAELEKRRFEFYSMADEYTAQVLPETNIVQHDNVEHGEELKLAETIDDLILSAIEAHNQNLFDKAEKIYTKIIEQNPNDIVLSVVYKHRGMAYFAQANYEGAYADFLQSCKYNSANFRSFYYVGIALTLLNRDDEAIEYFTKSLEINKFQAHVYFRRALSYFKLALYPEAARDLDSASDLGLAEEDAKKLRIAIAKKIDMV | failed
16 | MPHLTKAVHDYRLAAMHRLMDRLRVDALVFGSPDFFQYATNFQLDVWPWERPVFVVVPRNGETFAVMNELSTNHMRFATEKGTVWLSDVTYYAEHPRVANRLALPSQLPEVVAALLAAKGLGMSRIAVDVQHPILTGAQRYLPEMTLRPAMAEMRSLRWVKHAEELQIMRDLAALTDWVQDRYRENIRPGRLVQELDHAMAALMVEEAARRFAGEDFEIMKCWTLTGAASASPHGDGAACGSRIAKGDTIVNLVLPRLNGLYVENERTWFCGQPSDEQARFYSVAARATDAAVAAAVVGRRVCDMDAAAQAVIESAGCGDYVFHRTGHAVGLMLHEYPEDMAFNTRPLLAGEVYSSEPGLYVYGLGGFRLDDTVVVGEVPEVIVKTPKTLSYATVSL | failed
17 | MPHPNRTFKIVIAPDSFKSTATTSQAAAFIAEGIQAAVQSNECEGINVEITTVPMADGGEGTSSCFEGIDITLPTTDANGRLTEATYRFDPQSETAYIDVAAASGLPAVEDELRPLTADTYGTGVLIADAQTRGARR | not failed
18 | MPHQKIYLVGAGIEGWEGFGAKALEVIGKAEVLVGHKRHLDIFSDFTGKKQELGDLSILLEQLRSTDKRTVVLGSGDPNFFGIARFLLRNLPKERIEIFPNVTSVQYAFAQIKEPWDDAIFVSVHGRGLKGAVDRIVAAEKVAVLTDKTNSPAAIARELIARGAEGYEAWLCENLGLPGEKFTRTDVKGLLELPAAELNILILIKAWEPQLAQYPVIGIDDDEFATAKKLITKQEVRAVTLSKLRLQDDLVMWDIGAGSASVSIEASNLMPNGRIFALERNPQYLGFIRDNLKKFVARNVTLVEAFAPEGLDDLPDPDRVFIGGSGGMLEEIIDAVDRRLKSEGVIVLNAVTLDTLTKAVEFLEDHGYMVEVACVNVAKTKGLTEYKMFESHNPVYIITAWKSDE | failed
19 | MPIEIITDSGADLPQSYIREHRIAFLPLVVHWNGQDYKDGITIEPKQVYDAMRQGHTVKTAQPSPLAMKELFLPYAKENRPCLYIAFSSKLSGTYQTAMAVRSELLDEYPEFRLTIIDSKCASLGQGLAVMKAVELAKQNTPYNLLCETIESYCRHMEHIFTVDNLDYLARGGRISKTAAAFGGLLNIKPLLHVEDGALIPLEKWRGRKKVLKRMVELMGERGDDLQKQTIGISHADDEETALELKQMIEETHGCTRFFLSDIGSAIGAHAGPGTIALFFLNKYIEI | not failed
